From article PMC8761706, “Mapping of the fibrinogen-binding site on the staphylocoagulase C-terminal repeat region” (The Journal of Biological Chemistry, 2021)

Key:
[5F]PR–R1 [1] = biological target: T1, [5F]PR–R1 (Staphylococcus aureus Newman D2 Tager …, 5-fluorescein (5-IAF) on the engineered C-terminal Cys); experiment: other fluorescence titration; as the intensity titration in Hepes pH 7.4, with saturating GPRP (4.9 mM in the methods, 5 mM in the results); n fixed to 1; conditions: both partners purified
T1 construct: the 10 SC residues preceding PR (1-10 of the construct numbering); staphylocoagulase, first 11 residues of the 32-residue pseudorepeat PR (11-21 of the construct numbering); last 21 residues of PR (22-42 of the construct numbering); staphylocoagulase repeat R1, 27 residues; engineered C-terminal Cys for labeling; not shown: His6, N-terminal, cleaved

[5F]PR–R1 [2] = biological target: T1, [5F]PR–R1; experiment: other fluorescence titration; fluorescein-labeled construct at fixed concentration titrated with frag D; fluorescence intensity; 25 °C; 50 mM Hepes, 110 mM NaCl, 5 mM CaCl2, 1 mg/ml PEG-8000, pH 7.4, 10 μM FPR-CK; quadratic fit; n fixed to 1 for the Ala constructs and MP; conditions: both partners purified

B1: fibrinogen fragment D (domain or fragment)
chain 1: VSEDLRSRIEVLKRKVIEKVQHIQLLQKNVRAQLVDMKRLEVDIDIKIRSCRGSCSRALAREVDLKDYEDQQKQLEQVIAKDLLPSR
chain 2: DNENVVNEYSSELEKHQLYIDETVNSNIPTNLRVLRSILENLRSKIQKLESDVSAQMEYCRTPCTVSCNIPVVSGKECEEIIRKGGETSEMYLIQPDSSVKPYRVYCDMNTENGGWTVIQNRQDGSVDFGRKWDPYKQGFGNVATNTDGKNYCGLPGEYWLGNDKISQLTRMGPTELLIEMEDWKGDKVKAHYGGFTVQNEANKYQISVNKYRGTAGNALMDGASQLMGENRTMTIHNGMFFSTYDRDNDGWLTSDPRKQCSKEDGGGWWYNRCHAANPNGRYYWGGQYTWDMAKHGTDDGVVWMNWKGSWYSMRKMSMKIRPFFPQQ
chain 3: KMLEEIMKYEASILTHDSSIRYLQEIYNSNNQKIVNLKEKVAQLEAQCQEPCKDTVQIHDITGKDCQDIANKGAKQSGLYFIKPLKANQQFLVYCEIDGSGNGWTVFQKRLDGSVDFKKNWIQYKEGFGHLSPTGTTEFWLGNEKIHLISTQSAIPYALRVELEDWNGRTSTADYAMFKVGPEADKYRLTYAYFAGGDAGDAFDGFDFGDDPSDKFFTSHNGMQFSTWDNDNDKFEGNCAEQDGSGWWMNKCHAGHLNGVYYQGGTYSKASTPNGYDNGIIWATWKTRWYSMKKTTMKIIPFNRLTIGEGQQHHLGGAK
B1 was tested, and the Kd ([5F]PR–R1 [1]) was 18 nM and the Kd ([5F]PR–R1 [2]) was 49 nM.
